Experimental data published in publication PMC2428106, “Regulation of intestinal hPepT1 (SLC15A1) activity by phosphodiesterase inhibitors is via inhibition of NHE3 (SLC9A3)” (Biochimica et Biophysica Acta, 2007).

Substrate: CN(CC(=O)O)C(=O)CN
Assay: cells, lysate or membranes
Assay type: cell-based, Homo sapiens

B1: hPepT1 (SLC15A1) (Homo sapiens) (protein)
chain: MGMSKSHSFFGYPLSIFFIVVNEFCERFSYYGMRAILILYFTNFISWDDNLSTAIYHTFVALCYLTPILGALIADSWLGKFKTIVSLSIVYTIGQAVTSVSSINDLTDHNHDGTPDSLPVHVVLSLIGLALIALGTGGIKPCVSAFGGDQFEEGQEKQRNRFFSIFYLAINAGSLLSTIITPMLRVQQCGIHSKQACYPLAFGVPAALMAVALIVFVLGSGMYKKFKPQGNIMGKVAKCIGFAIKNRFRHRSKAFPKREHWLDWAKEKYDERLISQIKMVTRVMFLYIPLPMFWALFDQQGSRWTLQATTMSGKIGALEIQPDQMQTVNAILIVIMVPIFDAVLYPLIAKCGFNFTSLKKMAVGMVLASMAFVVAAIVQVEIDKTLPVFPKGNEVQIKVLNIGNNTMNISLPGEMVTLGPMSQTNAFMTFDVNKLTRINISSPGSPVTAVTDDFKQGQRHTLLVWAPNHYQVVKDGLNQKPEKGENGIRFVNTFNELITITMSGKVYANISSYNASTYQFFPSGIKGFTISSTEIPPQCQPNFNTFYLEFGSAYTYIVQRKNDSCPEVKVFEDISANTVNMALQIPQYFLLTCGEVVFSVTGLEFSYSQAPSNMKSVLQAGWLLTVAVGNIIVLIVAGAGQFSKQWAEYILFAALLLVVCVIFAIMARFYTYINPAEIEAQFDEDEKKNRLEKSNPYFMSGANSQKQM
B1 was tested. Which Km did it give?
The Km was 1000 ± 200 µM.
